What all share (experiment): purified protein
Substrate in data set [1]: NC(CCS)C(=O)O
Type of data set: biochemical, Thermus thermophilus. Conditions: 250 µM CH3-H4folate, SAM, aquacobalamin, DTT, pH 7.2, 50 °C, holo-tMS, DL-homocysteine varied.

Substrate in data set [2]: CN1c2c(nc(N)[nH]c2=O)NC[C@@H]1CNc1ccc(C(=O)N[C@@H](CCC(=O)O)C(=O)O)cc1
The conditions noted are these: 100 µM homocysteine, SAM, aquacobalamin, DTT, pH 7.2, 50 °C, holo-tMS (MeCbl), pH 7.2.

Substrate in data set [3]: C[S+](CC[C@H](N)C(=O)O)C[C@H]1O[C@@H](n2cnc3c(N)ncnc32)[C@H](O)[C@@H]1O
The conditions noted are these: 1.25 mM DL-homocysteine, 104 µM (6S)-methyltetrahydrofolate, 50 °C, holo-tMS, reactivation (reductive methylation of cob(II)alamin).

B1: tMS (full-length cobalamin-dependent methionine synthase) (Thermus thermophilus HB8) (protein)
chain: MVEVHACSPGCRHHLGGAGWGDAPLVRLGYNKEARAKKFPYLKALLERPLVFDGAMGTELQKRDLTPEDYGGEAYFGCPEVLNRTRPEVVREIHLAYLEAGAEVIETNTFGALRHVLAEYGLEEAAEELAFLGARIAREAADPHGAFVAGALGPGTKLVSLGQISWDALYRAYKEAARGLLKGGVDLILLETAQDILQVRCAVLAVREAMAEVGREVPLQVQVTFEATGTMLVGTDEQAALAALESLPVDVVGMNCATGPDLMDSKVRYFAEHSTRFVSCLPNAGLPRNEGGRVVYDLTPEELAKWHLKFVAEYGVNAVGGCCGTGPEHIRKVAEAVKGLAPKPRPESFPPQVASLYQAVSLKQEASLFLVGERLNATGSKRFREMLFARDLEGILALAREQVEEGAHALDLSVAWTGRDELEDLRWLLPHLATALTVPVMVDSTSPEAMELALKYLPGRVLLNSANLEDGLERFDRVASLAKAHGAALVVLAIDEKGMAKTREEKVRVALRMYERLTEHHGLRPEDLLFDLLTFPITQGDEESRPLAKETLLAMEELRERLPGVGFVLGVSNVSFGLKPRARRVLNSVFLDEARKRGLTAAIVDAGKILPISQIPEEAYALALDLIYDRRKEGFDPLLAFMAYFEAHKEDPGKREDAFLALPLLERLKRRVVEGRKQGLEADLEEALKAGHKPLDLINGPLLAGMKEVGDLFGAGKMQLPFVLQAAEVMKRAVAYLEPHMEKKGEGKGTLVLATVKGDVHDIGKNLVDIILSNNGYRVVNLGIKVPIEEILKAVEAHKPHAVGMSGLLVKSTLVMKENLEYMRDRGYTLPVILGGAALTRSYVEELRAIYPNVYYAEDAFEGLRLMEELTGHAPPELTRKAPARPKREAPKVAPRARPVGEAPAVPRPPFFGVRVEEGLDLATIAHYVNKLALYRGQWGYSRKGLSREAWQALVEREAEPVFQRLLKEAMAEGWLEPKVLYGFFPVAREGEELLVFSPETGEVLERFRFPRQKGGGLSLVDYFRPRFAAPLGDEADWMPKEAFRAGARDVLGVQLVTMGEAPSRKAQALFASGAYQDYLFVHGFSVEMTEALAEYWHKRMRQMWGIAHQDATEIQKLFQQGYQGARYSFGYPACPDLADQAKLDRLMGFHRVGVRLTENFQLEPEHATSALVVHHPEARYFSVD
notes: full-length wild type, five modules Hcy:Fol:Cap:Cob:Act, N-terminal His tag with TEV site (cut), E. coli BL21star(DE3); holoenzyme reconstituted with MeCbl; 132 kDa
What is called Km is the substrate concentration at which the rate is half of its maximum. Consider B1, for which the figures for the Km in the data set “purified protein [1]”, in the data set “purified protein [2]” and in “purified protein [3]” were 9.3 ± 3.1 µM, 18 ± 4.1 µM and 1.0 ± 0.1 µM, respectively.

The values above are taken from PMC10567725, “Structure of full-length cobalamin-dependent methionine synthase and cofactor loading captured in crystallo” (Nature Communications, 2023).
